This is an account of results in patent publication US20170340747A1, “PROCESS FOR PRODUCING IRON (III) CASEIN N-ACETYL-ASPARTYLATED COMPLEXES AND USE THEREOF IN PHARMACEUTICAL COMPOSITIONS” (priority 2014, published 2017).

A short description of series [1]: Solubility of the dried iron (III) casein N-acetyl-L-aspartylated complex. The class given is physicochemical. The method, then: The moist pure product obtained in the previous stage is dried under vacuum, at a temperature increasing from 60° C. to 70° C., for an overall period of 24 hours. After the desiccation process, 6.5 g of pure iron (III) casein N-acetyl-L-aspartylated complex are obtained, with a water content <5 wt % (Karl Fisher), having the following chemical and physicochemical characteristics:
The moist pure product obtained in the previous stage is dried under vacuum, at a temperature increasing from 60° C. to 70° C., for an overall period of 24 hours. After the desiccation process, 6.6 g of pure iron (III) casein: N-acetyl-L-aspartylated complex are obtained, with a water content<5 wt % (Karl Fisher), having the following chemical and physicochemical characteristics:
The moist pure product obtained in the previous stage is dried under vacuum, at a temperature increasing from 60° C. to 70° C., for an overall period of 24 hours. After the desiccation process, 6.4 g of pure iron (III) casein N-acetyl-L-aspartylated complex are obtained, with a water content<5 wt % (Karl Fisher), having the following chemical and physicochemical characteristics: […]

In series [2] the test system is patients with iron deficiency anaemia. The following applies: cited from earlier work.
The subject of the next series is rats. The note with it: complex containing 5% iron; cited from earlier work.
For a further series, the system named is dogs. The following applies: complex containing 5% iron; cited from earlier work.

Regarding “iron (III) casein N-acetyl-L-aspartylated complex [Example 3]”, the Solubility result in series [1] is given as “Soluble in NaOH pH = 8”.

“iron-acetyl-aspartylated casein [Fe-ASP]”: in series [2] (controlled clinical trials, compared with iron protein succinylate (IPS)), the “Changes in clinical and haematological profiles” value is “virtually identical to those seen with iron protein succinylate (IPS)”. The Safety result in series [2] (human, in vivo) was “No safety considerations were raised”. Moreover, the “Clinical and haematological parameters after treatment” value in series [2] (open clinical trials, all categories of patients with iron deficiency anaemia) was “highly significant improvements”.

Turning to “iron (III) casein: N-acetyl-L-aspartylated complex [Example 2]”, the Solubility entry in series [1] is “Soluble in NaOH pH = 8”.

Take “iron-protein succinylate [iron succinyl casein complex]”: the Gastrointestinal tolerability entry in the series on rats and in the series with dogs was “better gastrointestinal tolerability” each time.

On to ferro-N-acetyl-L-aspartylated casein, for which the “Solubility at alkaline pH values” in series [1] was “completely soluble at alkaline pH values”.
